The target of series [1] is T1, FMR1 (MBP fusion) (UniProt Q9NFU0 1-684). As to the kind of experiment: SPR; EMSA: 10 mM HEPES pH 7.4, 50 mM KCl, 1 mM DTT (printed DDT), 1 mM EDTA, 0.05% Triton X-100, 5% glycerol, 10 ng/ul salmon DNA, 25 C, then 0.2% glutaraldehyde; SPR: 20 mM HEPES pH 7.4, 150 mM KCl, 1.5 mM MgCl2, 0.1% NP40, 25 C; pull-down: 10 mM Tris-HCl pH 7.5, 150 mM KCl, 1.5 mM MgCl2, 0.1% NP-40, 0.5 mM DTT, 4 C. To be noted: protein: recombinant; label: biotin-16-UTP. Background: SPR reads the build-up and loss of mass on a sensor chip optically.

In series [2] the target is T1, FMR1 (MBP fusion). As to the kind of experiment: EMSA; EMSA: 10 mM HEPES pH 7.4, 50 mM KCl, 1 mM DTT (printed DDT), 1 mM EDTA, 0.05% Triton X-100, 5% glycerol, 10 ng/ul salmon DNA, 25 C, then 0.2% glutaraldehyde; SPR: 20 mM HEPES pH 7.4, 150 mM KCl, 1.5 mM MgCl2, 0.1% NP40, 25 C; pull-down: 10 mM Tris-HCl pH 7.5, 150 mM KCl, 1.5 mM MgCl2, 0.1% NP-40, 0.5 mM DTT, 4 C. To be noted: protein: recombinant; label: biotin-16-UTP.

T1 sequence (Q9NFU0 whole entry, the tested form may be a part): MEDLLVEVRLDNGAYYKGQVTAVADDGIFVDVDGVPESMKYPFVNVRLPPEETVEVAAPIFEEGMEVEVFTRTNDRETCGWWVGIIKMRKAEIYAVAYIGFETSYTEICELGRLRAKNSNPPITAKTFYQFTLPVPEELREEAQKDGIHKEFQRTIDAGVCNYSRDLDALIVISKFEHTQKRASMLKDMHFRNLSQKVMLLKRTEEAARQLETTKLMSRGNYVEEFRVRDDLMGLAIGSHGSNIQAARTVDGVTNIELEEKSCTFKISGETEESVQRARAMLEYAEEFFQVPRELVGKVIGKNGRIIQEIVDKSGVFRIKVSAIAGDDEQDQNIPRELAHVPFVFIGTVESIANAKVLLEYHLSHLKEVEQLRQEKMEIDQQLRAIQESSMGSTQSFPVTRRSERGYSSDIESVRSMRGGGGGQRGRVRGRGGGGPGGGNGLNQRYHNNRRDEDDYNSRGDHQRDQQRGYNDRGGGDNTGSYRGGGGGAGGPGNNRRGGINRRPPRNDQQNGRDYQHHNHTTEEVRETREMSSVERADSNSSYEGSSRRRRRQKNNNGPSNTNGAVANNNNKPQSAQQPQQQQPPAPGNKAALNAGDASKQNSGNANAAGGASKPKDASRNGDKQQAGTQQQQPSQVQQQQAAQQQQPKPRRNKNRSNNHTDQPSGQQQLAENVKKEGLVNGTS

B1: mixed GGACU/AGACU/GAACU probe, m6A (ssRNA)
RNA: GGGGACUAGACUGAACUGGGACUAGACUGAACUGGGACUAGACUGAACUGUAC
modifications: all A = m6A (m6ATP)
Consider B1, for which the Kd (usually the constant that tells how readily two partners part at equilibrium) in series [1] is 80.7 nM.

B2: mixed GGACU/AGACU/GAACU probe, unmodified (ssRNA)
RNA: B1 RNA
As for B2, the dissociation constant (Kd) in series [1] was determined as 3600 nM.

B3: AGACU (9x), m6A (ssRNA)
RNA: GGGAGACUAGACUAGACUGAGACUAGACUAGACUGAGACUAGACUAGACUGUAC
modifications: all A = m6A (m6ATP)
For B3, in series [2], the binding result is recorded as “binds”.

Source of the values: PMC8844045, “Dynamic FMR1 granule phase switch instructed by m6A modification contributes to maternal RNA decay”.
